Test results reported in PMC10512822.

Target: translocated ALK of ALK-translocated NSCLC tumors (n = 6) (human (endogenous in NSCLC tumors))
Assay: proximity ligation; Duolink PLA with mouse HER3 and rabbit ALK antibodies on FFPE sections of ALK-translocated NSCLC tumors (n = 6)

Question: “human epidermal growth factor receptor 3 (from UniProt P21860 20-1342)” was tested. Which mean signal for PLA per cell (signals per cell) did it give?
Answer: 17.2
